How the values were obtained:
[1] = tested on: human peripheral blood B cells; test: Direct cytotoxic effects (PCD, ADCC, CDC) on normal cells; assay type: cell-based; details: antibody cross-linked or not
Protocol: All experiments were performed in triplicate.
Target cells were harvested as described above (under ADCC heading) and incubated with antibodies at 5 μg/mL for 60 min on ice and then washed. Human serum, normal or heat-inactivated (Sigma, Sweden), was added to tubes and the samples were incubated for 2 hr at 37° C. After completion of incubation, ToPo-Pro-3 (Invitrogen) was added at a final concentration of 0.3 μM and cells were analyzed for membrane permeabilization using flow cytometry.

B lymphoma tissue = test: Immunohistochemistry on cryopreserved lymph node biopsies; assay type: binding, human; design: key: Increasing numbers of + indicate stronger staining.; ++: Increasing numbers of + indicate stronger staining.; +++: Increasing numbers of + indicate stronger staining
Protocol: Cryopreserved lymph node biopsies of patients with Anaplastic Large Cell B lymphoma (one patient), Centroblastic/Centrocytic B non-Hodgkin lymphoma (three patients), and B cell chronic lymphocytic leukaemia (one patient) were obtained from the Department of Pathology at Lund University (Lund, Sweden). Eight-micrometer sections of cryo-preserved tissue were fixed in acetone for 10 min at 4° C. Endogenous biotin-binding activity was blocked by sequential treatment with Avidin and Biotin (Avidin/Biotin blocking kit, Invitrogen) for 20 min each.
Tissues were incubated with 5 μg/ml control scFv or B11 scFv for 1 h. Following washing, sections were incubated with biotin-conjugated mouse anti-His mAb (R&D Systems) for 30 min. scFv binding was detected following treatment with ABC Complex/HRP reagent (Dako Cytomation) for 30 min, and subsequent incubation with DAB for 5 min.
Sections were photographed using a Leica DC 300F digital camera mounted on top of a Leica DMR light/fluorescence microscope.

ARH-77 tumors = test: SCID/ARH-77 subcutaneous xenograft model
Protocol: For subcutaneous grafting, 1-5×10^6 tumor cells (RPMI-8226, NCI-H929, EJM, OPM-2, ARH-77, or Daudi) were subcutaneously injected at a volume of 100 μl into the left flank of anesthetized mice as described in the Supplemental Information. […] Treatment with saline, isotype control IgG, bortezomib, lenalidomide, dexamethasone, or BI-505 started on day 5 (RPMI-8226). Treatment with melphalan started on day 10. BI-505 or isotype IgG mAb was administered i.v. at 2 mg/kg/inj twice weekly for 8 weeks; bortezomib at 1 mg/kg/inj once weekly for 8 weeks; lenalidomide orally at 2 mg/kg/inj for 2 cycles consisting of 5 days of treatment and 2 days of wash out; melphalan i.v. at 3 mg/kg/inj once weekly for 8 weeks; and dexamethasone at 6 mg/kg/inj three times weekly for 2 weeks.
Mice were anaesthetized with a mixture of sevofluran and oxygen prior to myeloma cell inoculation and 1-10×10^6 myeloma cells were then subcutaneously injected in a volume of 100 μl into the left flank. Treatment with antibodies by intraperitoneal injection started either 1 day after cell inoculation (prophylactic model) or when tumors reached approximately 100 mm^3 (established model). Antibodies were administered in 200 μL of PBS. Treatment with PBS only or isotype IgG were used as controls. Macrophages or NK-cells were depleted by i.p. administration of 0.1 ml clodronate liposomes (Clophosome-A, FormuMax, Scientific Inc. Palo Alto, USA) or 20 μl anti-asialo GM1 pCI Ab (CL8955, Cedarlane Laboratories Limited, Canada) respectively, starting one day prior to antibody treatment, followed by administration twice weekly for a total of three weeks, PBS was used as control.
Tumor size was measured using a digital calliper and tumor volumes were calculated according to the formula width^2×length×0.52, as previously described (Cao et al., 1999).
Statistical analyses of tumor growth inhibition relative to control antibody treatment were carried out using Kruskal-Wallis nonparametric ANOVA with Dunn's multiple comparisons test or Mann-Whitney non-parametric analysis, as indicated in the figure legends.

T cells = test: T cell proliferation (CFSE); assay type: cell-based, human; details: immobilized (air-dried or wet coated) or in solution
Protocol: (FIG. 23F) Antibody induced T-cell proliferation. CFSE-labeled T-cells were incubated with BI-505, isotype control IgG or anti-CD3 (okt-3) IgG hyperimmobilised to cell culture plates by air-drying “A” or wet-coating “W”. Cells were cultured for 6 days, and T cell proliferation was monitored by flow-cytometry as decreased CFSE signals.
Cytokine release and T cell proliferation are thought to be common causes of mild and severe adverse reactions to antibody therapy. In order to further investigate any undesirable effects of BI-505 on ICAM-1 expressing immune cells, we therefore assessed putative effects of BI-505 on peripheral blood mononuclear cell (PBMC) cytokine release and T cell proliferation. In order to maximize the chances of identifying any PBMC-agonistic properties of BI-505, we used two different antibody-coating protocols in which the antibody was hyper-cross-linked as previously described (Stebbings et al., 2007).
T cells used in the proliferation assay were stained with CFSE (carboxyfluorescein diacetate, succinimidyl ester; Invitrogen). The CFSE-labeled cells were seeded at a density of 150,000 cells/well in wet and air-dried antibody-coated plates. The cells were cultured for 6 days with one renewal of medium after 3 days. AccuCheck Count Beads (Invitrogen) were used to ensure accurate quantification of cell proliferation in the flow cytometry. […]

ICAM-2 = target: T1, ICAM-2 (Homo sapiens, UniProt P13598); test: Binding to recombinant ICAM family protein
T1 sequence (P13598 25-275): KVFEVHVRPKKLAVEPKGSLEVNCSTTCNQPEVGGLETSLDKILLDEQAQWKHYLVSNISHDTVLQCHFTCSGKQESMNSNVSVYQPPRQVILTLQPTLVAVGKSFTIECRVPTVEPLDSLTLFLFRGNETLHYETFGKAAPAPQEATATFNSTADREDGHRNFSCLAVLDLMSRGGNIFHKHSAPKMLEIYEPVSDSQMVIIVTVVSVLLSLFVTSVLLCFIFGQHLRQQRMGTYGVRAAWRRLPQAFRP

ICAM-3 = target: T2, ICAM-3 (Homo sapiens, UniProt P32942); test: Binding to recombinant ICAM family protein
T2 sequence (P32942 30-547): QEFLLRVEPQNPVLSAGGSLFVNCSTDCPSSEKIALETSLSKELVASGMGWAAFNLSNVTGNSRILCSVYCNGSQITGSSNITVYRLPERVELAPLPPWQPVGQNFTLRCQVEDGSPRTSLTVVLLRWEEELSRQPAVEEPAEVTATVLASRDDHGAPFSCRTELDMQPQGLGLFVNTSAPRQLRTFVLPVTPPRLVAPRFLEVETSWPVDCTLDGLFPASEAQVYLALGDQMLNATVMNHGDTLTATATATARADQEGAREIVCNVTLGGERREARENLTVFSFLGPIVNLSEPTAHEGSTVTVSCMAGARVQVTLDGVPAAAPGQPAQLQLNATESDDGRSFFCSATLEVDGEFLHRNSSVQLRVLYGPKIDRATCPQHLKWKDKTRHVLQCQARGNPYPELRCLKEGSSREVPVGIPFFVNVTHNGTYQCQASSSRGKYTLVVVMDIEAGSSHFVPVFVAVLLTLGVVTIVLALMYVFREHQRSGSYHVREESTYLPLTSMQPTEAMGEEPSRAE

[2] = tumors established for 12 days before start of antibody treatment

B1: B11: fully human IgG1 antibody specific for ICAM-1; VH and VL sequences of FIG. 10 (SEQ ID NOs. 6 and 8) (antibody, listed as Homo sapiens, V domains shown)
VH: EVQLLESGGGLVQPGGSLRLSCAASGFTFSNAWMSWVRQAPGKGLEWVAFIWYDGSNKYYADSVKGRFTISRDNSKNTLYLQMNSLRAEDTAVYYCARYSGWYFDYWGQGTLVTVSS
VL: QSVLTQPPSASGTPGQRVTISCTGSSSNIGAGYDVHWYQQLPGTAPKLLIYDNNNRPSGVPDRFSGSKSGTSASLAISGLRSEDEADYYCQSYDSSLSAWLFGGGTKLTVLG
- cell death in normal cells [1]: did not induce cell death
- Staining of B lymphoma tissue (B lymphoma tissue; Patient A, B-CLL (low malignant non-Hodgkin Lymphoma)): +
- Staining of B lymphoma tissue (B lymphoma tissue; Patient B, Anaplastic Large Cell B Cell Lymphoma): ++
- Staining of B lymphoma tissue (B lymphoma tissue; Patient D, B-CLL/B-PLL): ++
- Staining of B lymphoma tissue (B lymphoma tissue; Patient F, Centroblastic-Centrocytic B non-Hodgkin Lymphoma): ++
- antitumor activity (ARH-77 tumors; dose-titration, dose of 0.2 mg/kg): near maximal
- in vivo antitumor activity of Fc-variants, order (ARH-77 tumors; established ARH-77 tumors): IgG1 N297Q<IgG4<IgG1
- tumor macrophage infiltration (ARH-77 tumors; established ARH-77 tumors, F4/80+ immunohistochemistry): significantly increased tumor macrophage infiltration
- tumor NK cell content (ARH-77 tumors; established ARH-77 tumors, immunohistochemistry): decreased tumor NK cell content
- survival (ARH-77 tumors; prophylactic, 0.2 mg/kg, compared to 20 mg/kg rituximab): equally efficacious
- injected mice in which tumor growth was prevented (ARH-77 tumors; prophylactic, 20 mg/kg twice-weekly from 1 day after tumor cell inoculation): 9 out of 10
- animal survival (ARH-77 tumors; [2]): prolonged animal survival
- tumor growth (ARH-77 tumors; [2]): significantly reduced tumor growth
- T cell proliferation (T cells): did not induce T cell proliferation
- binding to recombinant protein (ICAM-2): not to ICAM-2 or ICAM-3
- binding to recombinant protein (ICAM-3): not to ICAM-2 or ICAM-3
